T1: CD72-Fc (CD72 extracellular domain, aa 117-359, fused to a biotinylated human Fc domain) (human, UniProt P21854 117-359, biotinylated (on the Fc domain; site not stated))
T1 construct: range 117-359; Expressed in mammalian cells; also called CD72-ECD-Fc protein; recombinant CD72-Fc fusion protein; not shown: human Fc domain
T1 sequence (looked up): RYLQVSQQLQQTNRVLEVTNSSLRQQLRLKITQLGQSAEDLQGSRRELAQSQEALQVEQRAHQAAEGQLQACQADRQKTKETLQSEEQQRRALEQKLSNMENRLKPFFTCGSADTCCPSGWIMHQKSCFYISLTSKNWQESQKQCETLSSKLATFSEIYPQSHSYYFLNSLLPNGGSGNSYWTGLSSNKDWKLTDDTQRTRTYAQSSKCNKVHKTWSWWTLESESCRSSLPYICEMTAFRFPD

T2: CD72-Fc (CD72 extracellular domain, aa 117-359, fused to a biotinylated human Fc domain) (human, UniProt P21854 117-359, biotinylated (on the Fc domain; site not stated))
T2 chain: T1 sequence (looked up)

B1: Nb.B5 (VHH)
VHH: QVQLQESGGGLVQAGGSLRLSCAASGTIFPVDYMGWYRQAPGKERELVAGINYGSNTYYADSVKGRFTISRDNAKNTVYLQMNSLKPEDTAVYYCAAWQPEGYAVDFYHPYWGQGTQVTVSS
B2: Nb.C2 (VHH)
VHH: QVQLQESGGGLVQAGGSLRLSCAASGTIFDWYSMGWYRQAPGKERELVAGIDTGANTYYADSVKGRFTISRDNAKNTVYLQMNSLKPEDTAVYYCAAHDDGDPWHVYWGQGTQVTVSS
notes: also called yeast clone Nb.C2

Experiments:
[1] = biological target: T1, CD72-Fc (CD72 extracellular domain, aa …); assay: on-yeast affinity measurement, flow cytometry, titration of CD72-Fc
From the text: FIG. 4a-e: Isolation of high-affinity CD72 nanobodies with yeast display (a) Schematic of workflow for in vitro anti-CD72 nanobody selection using yeast display. (b) Structure models of the recombinant Fc-fusion proteins used to perform yeast display selections. The Fc protein on the left was used to negatively select potential off-target nanobodies while the CD72-Fc protein (CD72 extracellular domain fused to a human Fc domain) was used to perform positive selection steps to isolate CD72-specific nanobodies (c) Schematic displaying the nanobody yeast display selection strategy for each MACS and FACS selection round to enrich for CD72-specific nanobody binders. Two rounds of MACS followed by four rounds of FACS with decreasing concentration of CD72 antigen produced high affinity anti-CD72 nanobodies. (d) On-yeast binding of recombinant CD72-Fc fusion protein for CD72-selected nanobodies Nb.B5 (nanobody sequence SEQ ID NO:2) and Nb.C2 (nanobody sequence SEQ ID NO:1) expressed on yeast to determine estimated binding affinities. Kd determined by curve fitting using non-linear least squares regression. (e) Flow cytometry plots of yeast clone Nb.C2 binding to 10 nM CD72-ECD-Fc protein (left) or 10 nM Fc protein (right). […]

[2] = biological target: T2, CD72-Fc (CD72 extracellular domain, aa …); assay: on-yeast binding (yeast display flow cytometry)

Binder | binding result [1] | Kd [2]
B1 | binds | 1 nM
B2 | binds | 1.5 nM

Source: US20220251217A1 (University of California, published 2022)
